Experimental data: patent publication US20170240920A1

Target: RQR8
Experiment: cell-based or functional assay

clinical grade human-rituximab (antibody)
eGFP positive cells in the sorted fraction (K562 cells, human rituximab on protein-A beads): 89.4%
transduced target cells with LV sorted with beads (RDpro pseudotyped LV): 14.1%
transduced target cells with the purified fraction (VSV-G pseudotyped LV): 73.6%
